This note sets out measurements from the supplement of paper PMC10567573.

To fix the notation:
B1: ZNF263 (parent)
chain: HLTRHQRTHTGEKPYKCTLCGENF
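Further: lentivirally expressed fusions sorted by FACS into six bins by GFP to DsRed ratio, PSI derived from sequencing read proportions per bin multiplied by bin number.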

In the series the parent is B1. Briefly: protein stability index of a GFP-peptide fusion (GPS, HEK-293T) (PSI 1-6); higher = more stable. The note with it: c terminus: a fixed tail appended.
On to HLTGHQRTHTGEKPYKCTLCGENF [R4G], for which the protein stability index is 2.38.

Turning to HLTCHQRTHTGEKPYKCTLCGENF [R4C], the protein stability index amounted to 3.67.

As to HLTLHQRTHTGEKPYKCTLCGENF [R4L], the protein stability index was 3.22.

With HLTEHQRTHTGEKPYKCTLCGENF [R4E], the protein stability index was 3.7.

Regarding HLTDHQRTHTGEKPYKCTLCGENF [R4D], the protein stability index was found to be 4.07.

With HLTWHQRTHTGEKPYKCTLCGENF [R4W], the protein stability index amounted to 2.5.

Consider HLTIHQRTHTGEKPYKCTLCGENF [R4I], for which the protein stability index amounted to 2.61.

HLTKHQRTHTGEKPYKCTLCGENF [R4K]: the protein stability index is 3.47.

HLTYHQRTHTGEKPYKCTLCGENF [R4Y]: the protein stability index stood at 2.76.

HLTVHQRTHTGEKPYKCTLCGENF [R4V]: the protein stability index was 3.35.

Consider HLTNHQRTHTGEKPYKCTLCGENF [R4N], for which the protein stability index worked out at 3.09.

HLTHHQRTHTGEKPYKCTLCGENF [R4H]: the protein stability index was determined as 3.53.

For the variant HLTAHQRTHTGEKPYKCTLCGENF [R4A], the protein stability index was 3.43.

Take HLTSHQRTHTGEKPYKCTLCGENF [R4S]: the protein stability index worked out at 3.37.

In the case of HLTFHQRTHTGEKPYKCTLCGENF [R4F], the protein stability index amounted to 2.38.

Consider HLTMHQRTHTGEKPYKCTLCGENF [R4M], for which the protein stability index was 2.83.

Turning to HLTPHQRTHTGEKPYKCTLCGENF [R4P], the protein stability index was 3.76.

For the variant HLTQHQRTHTGEKPYKCTLCGENF [R4Q], the protein stability index was found to be 3.32.

Turning to HLTTHQRTHTGEKPYKCTLCGENF [R4T], the protein stability index is 3.1.

As to HLTRHQRTHTCEKPYKCTLCGENF [G11C], the protein stability index turned out to be 4.07.

Consider HLTRHQRTHTTEKPYKCTLCGENF [G11T], for which the protein stability index was 3.01.

As to HLTRHQRTHTWEKPYKCTLCGENF [G11W], the protein stability index was found to be 2.07.

HLTRHQRTHTQEKPYKCTLCGENF [G11Q]: the protein stability index was 3.55.

As for HLTRHQRTHTDEKPYKCTLCGENF [G11D], the protein stability index was found to be 3.25.

HLTRHQRTHTIEKPYKCTLCGENF [G11I]: the protein stability index turned out to be 2.46.

Regarding HLTRHQRTHTEEKPYKCTLCGENF [G11E], the protein stability index was found to be 3.92.

With HLTRHQRTHTYEKPYKCTLCGENF [G11Y], the protein stability index stood at 2.17.

Consider HLTRHQRTHTFEKPYKCTLCGENF [G11F], for which the protein stability index came out at 2.72.

Turning to HLTRHQRTHTHEKPYKCTLCGENF [G11H], the protein stability index turned out to be 2.83.

For the variant HLTRHQRTHTNEKPYKCTLCGENF [G11N], the protein stability index stood at 2.98.

In the case of HLTRHQRTHTPEKPYKCTLCGENF [G11P], the protein stability index is 2.86.

As to HLTRHQRTHTVEKPYKCTLCGENF [G11V], the protein stability index came out at 2.38.

With HLTRHQRTHTMEKPYKCTLCGENF [G11M], the protein stability index is 2.84.

Consider HLTRHQRTHTLEKPYKCTLCGENF [G11L], for which the protein stability index stood at 2.99.

On to HLTRHQRTHTAEKPYKCTLCGENF [G11A], for which the protein stability index was found to be 3.15.

As for HLTRHQRTHTSEKPYKCTLCGENF [G11S], the protein stability index is 3.45.

Take HLTRHQRTHTREKPYKCTLCGENF [G11R]: the protein stability index amounted to 2.94.

Take HLTRHQRTHTKEKPYKCTLCGENF [G11K]: the protein stability index was 3.06.

In the case of HLTRLQRTHTGEKPYKCTLCGENF [H5L], the protein stability index amounted to 2.09.

For HLTRDQRTHTGEKPYKCTLCGENF [H5D], the protein stability index was 2.56.

Regarding HLTRNQRTHTGEKPYKCTLCGENF [H5N], the protein stability index is 2.34.

HLTRYQRTHTGEKPYKCTLCGENF [H5Y]: the protein stability index worked out at 2.39.

For HLTRRQRTHTGEKPYKCTLCGENF [H5R], the protein stability index is 2.74.

On to HLTRAQRTHTGEKPYKCTLCGENF [H5A], for which the protein stability index came to 2.69.

Consider HLTRWQRTHTGEKPYKCTLCGENF [H5W], for which the protein stability index was 2.31.

For HLTRVQRTHTGEKPYKCTLCGENF [H5V], the protein stability index is 2.27.

Take HLTRGQRTHTGEKPYKCTLCGENF [H5G]: the protein stability index came to 3.

Turning to HLTRMQRTHTGEKPYKCTLCGENF [H5M], the protein stability index is 2.28.

As for HLTRKQRTHTGEKPYKCTLCGENF [H5K], the protein stability index worked out at 2.98.

As to HLTRCQRTHTGEKPYKCTLCGENF [H5C], the protein stability index stood at 3.92.

For the variant HLTRQQRTHTGEKPYKCTLCGENF [H5Q], the protein stability index was 3.08.

As for HLTRIQRTHTGEKPYKCTLCGENF [H5I], the protein stability index amounted to 2.11.

For HLTREQRTHTGEKPYKCTLCGENF [H5E], the protein stability index was 2.96.

Regarding HLTRFQRTHTGEKPYKCTLCGENF [H5F], the protein stability index stood at 2.47.

HLTRSQRTHTGEKPYKCTLCGENF [H5S]: the protein stability index was 3.2.

As to HLTRPQRTHTGEKPYKCTLCGENF [H5P], the protein stability index was 2.91.

For HLTRTQRTHTGEKPYKCTLCGENF [H5T], the protein stability index was determined as 2.24.

In the case of HLTRHQRTLTGEKPYKCTLCGENF [H9L], the protein stability index is 2.51.

HLTRHQRTRTGEKPYKCTLCGENF [H9R]: the protein stability index came to 3.11.

Turning to HLTRHQRTTTGEKPYKCTLCGENF [H9T], the protein stability index came out at 3.04.

For the variant HLTRHQRTNTGEKPYKCTLCGENF [H9N], the protein stability index was found to be 2.79.

Consider HLTRHQRTETGEKPYKCTLCGENF [H9E], for which the protein stability index came out at 3.41.

Take HLTRHQRTITGEKPYKCTLCGENF [H9I]: the protein stability index was determined as 2.48.

HLTRHQRTKTGEKPYKCTLCGENF [H9K]: the protein stability index stood at 3.58.

Consider HLTRHQRTSTGEKPYKCTLCGENF [H9S], for which the protein stability index came to 2.71.

Regarding HLTRHQRTCTGEKPYKCTLCGENF [H9C], the protein stability index is 2.74.

In the case of HLTRHQRTWTGEKPYKCTLCGENF [H9W], the protein stability index amounted to 1.89.

As to HLTRHQRTGTGEKPYKCTLCGENF [H9G], the protein stability index amounted to 3.04.

On to HLTRHQRTMTGEKPYKCTLCGENF [H9M], for which the protein stability index was 2.5.

Turning to HLTRHQRTYTGEKPYKCTLCGENF [H9Y], the protein stability index is 2.19.

In the case of HLTRHQRTFTGEKPYKCTLCGENF [H9F], the protein stability index is 2.22.

As for HLTRHQRTQTGEKPYKCTLCGENF [H9Q], the protein stability index stood at 2.67.

Consider HLTRHQRTDTGEKPYKCTLCGENF [H9D], for which the protein stability index was determined as 2.83.

As for HLTRHQRTVTGEKPYKCTLCGENF [H9V], the protein stability index came out at 2.65.

Consider HLTRHQRTATGEKPYKCTLCGENF [H9A], for which the protein stability index came out at 2.67.

As to HLTRHQRTPTGEKPYKCTLCGENF [H9P], the protein stability index amounted to 2.77.

For the variant HLTRHQRTHTGYKPYKCTLCGENF [E12Y], the protein stability index amounted to 2.84.

Regarding HLTRHQRTHTGPKPYKCTLCGENF [E12P], the protein stability index stood at 2.8.

In the case of HLTRHQRTHTGVKPYKCTLCGENF [E12V], the protein stability index was found to be 3.08.

With HLTRHQRTHTGHKPYKCTLCGENF [E12H], the protein stability index was found to be 3.78.

With HLTRHQRTHTGMKPYKCTLCGENF [E12M], the protein stability index is 2.71.

For HLTRHQRTHTGWKPYKCTLCGENF [E12W], the protein stability index is 1.87.

As for HLTRHQRTHTGFKPYKCTLCGENF [E12F], the protein stability index worked out at 2.47.

As for HLTRHQRTHTGQKPYKCTLCGENF [E12Q], the protein stability index stood at 2.74.

Turning to HLTRHQRTHTGRKPYKCTLCGENF [E12R], the protein stability index worked out at 2.55.

HLTRHQRTHTGNKPYKCTLCGENF [E12N]: the protein stability index turned out to be 2.7.

HLTRHQRTHTGSKPYKCTLCGENF [E12S]: the protein stability index amounted to 3.19.

Consider HLTRHQRTHTGKKPYKCTLCGENF [E12K], for which the protein stability index amounted to 3.2.

For HLTRHQRTHTGCKPYKCTLCGENF [E12C], the protein stability index is 2.41.

On to HLTRHQRTHTGGKPYKCTLCGENF [E12G], for which the protein stability index was 2.23.

In the case of HLTRHQRTHTGTKPYKCTLCGENF [E12T], the protein stability index was 2.59.

As for HLTRHQRTHTGLKPYKCTLCGENF [E12L], the protein stability index was 2.29.

With HLTRHQRTHTGAKPYKCTLCGENF [E12A], the protein stability index turned out to be 3.53.

For HLTRHQRTHTGIKPYKCTLCGENF [E12I], the protein stability index is 2.11.
